Target: FUS (full-length recombinant protein; tag not told for these experiments) (UniProt P35637)
Assay: cross-linking

stoichiometry N: < 5
Substance: FUS (full-length recombinant protein; tag not told for these experiments) (from UniProt P35637 1-526) (natural protein)

From publication PMC3925748
